Test results as given in publication PMC4847008.

Biological target: MT1-MMPmCh ΔDKV (UniProt P50281)

Substance: LIM Kinase-1 (from UniProt P53667 1-647) (natural protein)
- tyrosine phosphorylation (4G10 blot) of precipitated MT1-MMPmCh by recombinant GST-LIMK1 in an in vitro kinase assay, ΔDKV against WT: 60 % decrease
